Experimental data from the supplement of paper PMC10567573.

B1: TRIM29 (parent)
chain: FAEKGELRKSIFSESRKPTVSIME
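Note: lentivirally expressed fusions sorted by FACS into six bins by GFP to DsRed ratio, PSI derived from sequencing read proportions per bin multiplied by bin number.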

Variants of: B1
Test: protein stability index of a GFP-peptide fusion (GPS, HEK-293T) (PSI 1-6); higher = more stable
Details: c terminus: a fixed tail appended
In the case of FAEKGELRKSICSESRKPTVSIME [F12C], the protein stability index is reported as 2.96.
Work on FAEIGELRKSIFSESRKPTVSIME [K4I] yielded a protein stability index of 2.1.
Work on FAEKGELRKSIFSESRTPTVSIME [K17T] yielded a protein stability index of 2.12.
In the case of FAEKGDLRKSIFSESRKPTVSIME [E6D], the protein stability index is reported as 1.44.
With FAEKGELRKSIFSESRKRTVSIME [P18R] the protein stability index was 2.32.
FAEKGELRKSTFSESRKPTVSIME [I11T] gave a protein stability index of 2.65.
For FTEKGELRKSIFSESRKPTVSIME [A2T], the protein stability index was 2.36.
In the case of FAEKGELRKSQFSESRKPTVSIME [I11Q], the protein stability index is reported as 3.33.
Variant FAEKGEERKSIFSESRKPTVSIME [L7E] has a protein stability index of 3.15.
In the case of FAEKGELRKSIFSESKKPTVSIME [R16K], the protein stability index is reported as 2.35.
FAEKGELRKSIFSESRNPTVSIME [K17N] showed a protein stability index of 1.39.
FAEKGEDRKSIFSESRKPTVSIME [L7D] showed a protein stability index of 1.78.
In the case of FAEKGELRKSIFSESRKPTVSEME [I22E], the protein stability index is reported as 2.06.
Variant FAEKGELPKSIFSESRKPTVSIME [R8P] has a protein stability index of 1.89.
Work on FAEKGEWRKSIFSESRKPTVSIME [L7W] yielded a protein stability index of 3.9.
FAEKGELRKNIFSESRKPTVSIME [S10N] gave a protein stability index of 1.76.
For FAEKGELRKSIFSESRKHTVSIME [P18H], the protein stability index was 1.94.
Variant FAEKGEGRKSIFSESRKPTVSIME [L7G] has a protein stability index of 1.46.
With FAEKGELRKSIISESRKPTVSIME [F12I] the protein stability index was 3.39.
Variant FAEKGELRKSIFSESQKPTVSIME [R16Q] has a protein stability index of 1.6.
Variant FAESGELRKSIFSESRKPTVSIME [K4S] has a protein stability index of 1.8.
FAEKGEARKSIFSESRKPTVSIME [L7A] gave a protein stability index of 2.25.
FAEKGELRKSIFSESRKCTVSIME [P18C] gave a protein stability index of 2.21.
FAEKGELRKSIFSESRKPTVQIME [S21Q] showed a protein stability index of 3.18.
Variant FAEKGELRKSIFSESRKPTVSAME [I22A] has a protein stability index of 2.
In the case of FAEKGELRKSIFSESRCPTVSIME [K17C], the protein stability index is reported as 1.28.
FAEKGELRKSIFSEQRKPTVSIME [S15Q] gave a protein stability index of 2.1.
For FAEKGELRKSIFSESRKPTVGIME [S21G], the protein stability index was 1.95.
Variant FAEKGELRKSIFSESRKPCVSIME [T19C] has a protein stability index of 2.39.
With FAEKGELRISIFSESRKPTVSIME [K9I] the protein stability index was 3.48.
Work on FAEKGELGKSIFSESRKPTVSIME [R8G] yielded a protein stability index of 1.56.
In the case of FAEKGQLRKSIFSESRKPTVSIME [E6Q], the protein stability index is reported as 1.45.
With FAEKGELRRSIFSESRKPTVSIME [K9R] the protein stability index was 2.62.
Variant FAEKGELRKSIFLESRKPTVSIME [S13L] has a protein stability index of 1.84.
FAEHGELRKSIFSESRKPTVSIME [K4H] gave a protein stability index of 1.75.
FAYKGELRKSIFSESRKPTVSIME [E3Y] showed a protein stability index of 1.88.
With FAEKGELRKSIFSEYRKPTVSIME [S15Y] the protein stability index was 2.04.
Work on FAEKGELRKSIQSESRKPTVSIME [F12Q] yielded a protein stability index of 3.72.
FAEKGELRKSIFSESRSPTVSIME [K17S] gave a protein stability index of 1.82.
FAEKGELRKSIFSESRKPEVSIME [T19E] showed a protein stability index of 1.8.
Work on FAVKGELRKSIFSESRKPTVSIME [E3V] yielded a protein stability index of 1.15.
FAEKGELRKSIFSESRKPTISIME [V20I] gave a protein stability index of 2.12.
Work on FAEKGELRKSIFSENRKPTVSIME [S15N] yielded a protein stability index of 1.64.
For FAEGGELRKSIFSESRKPTVSIME [K4G], the protein stability index was 2.02.
In the case of FAEKGELRKSIFSEWRKPTVSIME [S15W], the protein stability index is reported as 2.29.
Work on FAEKGELRKSIFSESRKPTVCIME [S21C] yielded a protein stability index of 1.49.
For FAEKGELRKKIFSESRKPTVSIME [S10K], the protein stability index was 2.17.
FAEKGELRKSIFSESRKPTVYIME [S21Y] showed a protein stability index of 2.15.
FAEKGEHRKSIFSESRKPTVSIME [L7H] showed a protein stability index of 2.44.
FAEKGELRKSIFSESRKPTVSIMK [E24K] gave a protein stability index of 1.76.
With FHEKGELRKSIFSESRKPTVSIME [A2H] the protein stability index was 2.07.
In the case of FAEKGELRKSIFTESRKPTVSIME [S13T], the protein stability index is reported as 1.87.
FAEKGELRKSIFSESRKPTVNIME [S21N] gave a protein stability index of 2.11.
With FAEKGELRKSIFWESRKPTVSIME [S13W] the protein stability index was 2.55.
In the case of FAEKGELRKSIFSESRRPTVSIME [K17R], the protein stability index is reported as 1.53.
FAEKGELRKSIFSESRKPYVSIME [T19Y] gave a protein stability index of 2.
Variant FAEKGELRKSIDSESRKPTVSIME [F12D] has a protein stability index of 4.25.
Variant FAEKGELRKSIFSESRKPTVSPME [I22P] has a protein stability index of 2.48.
FAEKGELRKSIFSESRKPTVSIMF [E24F] showed a protein stability index of 2.22.
FAEKGELHKSIFSESRKPTVSIME [R8H] showed a protein stability index of 1.54.
Variant FSEKGELRKSIFSESRKPTVSIME [A2S] has a protein stability index of 2.53.
Variant FAEKGELMKSIFSESRKPTVSIME [R8M] has a protein stability index of 1.81.
For FAEKFELRKSIFSESRKPTVSIME [G5F], the protein stability index was 2.17.
Variant FAEKGELRYSIFSESRKPTVSIME [K9Y] has a protein stability index of 2.36.
For FAEKGELRKSIKSESRKPTVSIME [F12K], the protein stability index was 3.54.
For FAEKGELRKSIFCESRKPTVSIME [S13C], the protein stability index was 1.67.
Variant FAEKGELRKSPFSESRKPTVSIME [I11P] has a protein stability index of 2.51.
FAEKGELRKSIFSEVRKPTVSIME [S15V] gave a protein stability index of 2.3.
FAEKGELTKSIFSESRKPTVSIME [R8T] gave a protein stability index of 2.
FAEKGELRKSIFSESHKPTVSIME [R16H] showed a protein stability index of 1.74.
With FAEKGELRKSIFSESRKVTVSIME [P18V] the protein stability index was 2.5.
FAEKGELRKSIFYESRKPTVSIME [S13Y] showed a protein stability index of 2.08.
In the case of FAEKGELRKSIMSESRKPTVSIME [F12M], the protein stability index is reported as 3.49.
For FAEKGELRKSIFSESRKPTVSIMV [E24V], the protein stability index was 2.33.
FAEKGELRKSIFSESRKPTVSLME [I22L] gave a protein stability index of 2.17.
Variant FAEKGELRKSIFSESRKPTMSIME [V20M] has a protein stability index of 1.92.
HAEKGELRKSIFSESRKPTVSIME [F1H] gave a protein stability index of 4.29.
Work on FAEKGEYRKSIFSESRKPTVSIME [L7Y] yielded a protein stability index of 2.08.
Variant FAEPGELRKSIFSESRKPTVSIME [K4P] has a protein stability index of 1.8.
FMEKGELRKSIFSESRKPTVSIME [A2M] showed a protein stability index of 3.21.
For FAEKGYLRKSIFSESRKPTVSIME [E6Y], the protein stability index was 1.84.
Work on FAEKGELRKSIFSRSRKPTVSIME [E14R] yielded a protein stability index of 1.49.
With FAEKGELLKSIFSESRKPTVSIME [R8L] the protein stability index was 2.32.
With FAEKGELRKSIFSESRKPQVSIME [T19Q] the protein stability index was 2.26.
PAEKGELRKSIFSESRKPTVSIME [F1P] showed a protein stability index of 3.9.
Variant FAEKGELRKYIFSESRKPTVSIME [S10Y] has a protein stability index of 2.04.
With FAEKGEMRKSIFSESRKPTVSIME [L7M] the protein stability index was 2.02.
For FAEKGELRKSMFSESRKPTVSIME [I11M], the protein stability index was 1.53.
FAEKGELRKSIFSEIRKPTVSIME [S15I] gave a protein stability index of 1.56.
Work on FAEKGELRKSIFSESFKPTVSIME [R16F] yielded a protein stability index of 1.96.
In the case of FAEKGELRKSIFSESRYPTVSIME [K17Y], the protein stability index is reported as 2.23.
Variant FAEKGELRKEIFSESRKPTVSIME [S10E] has a protein stability index of 2.12.
Work on FAEKGELRKSIFSESRKPTESIME [V20E] yielded a protein stability index of 2.79.
For FWEKGELRKSIFSESRKPTVSIME [A2W], the protein stability index was 2.74.
